Assay results as given in US20240350583A1, “COMPOSITION FOR PREVENTING OR TREATING FIBROTIC DISEASES, COMPRISING HAPLN1” (Chung Ang University Industry Academic Cooperation …, priority 2021, published 2024).

Columns and labels:
[1] = tested on: human colon fibroblast cell line (CCD-18Co); test: TGFβ1-induced fibrosis of human colon fibroblast cell line, αSMA western blot; assay type: cell-based
Method: (1) A human colon fibroblast cell line (CCD-18Co (human colon fibroblast cell line; ATCC, CRL-1459)) was seeded (1.5×10^5 cells/well) in a 6-well plate according to the experimental scheme in FIG. 3A and incubated in Eagle's minimum essential medium (EMEM) medium including 10% fetal bovine serum (FBS) for 24 hours in an incubator at 37° C. and 5% CO2.
(2) After replacing with serum-free EMEM medium, the medium was incubated for 24 hours.
(3) The plates were then treated with TGF-β (10 ng/ml) to induce fibrosis and incubated for 24 hours.
(4) Afterwards, each well of the plate was then treated with the composition of the present disclosure at rhHAPLN1 protein content of 0, 3, 10, 30, and 100 ng/ml and pirfenidone 100 μg/mL and 200 μg/mL, respectively, and incubated for 24 hours.
(5) Each sample was then treated with cell lysis buffer and harvested.
(6) Western blot was performed on the samples. Here, anti-αSMA Ab (Abcam, ab7817), anti-GAPDH Ab (Santa Cruz, sc-32233) were used as primary antibodies and HRP-conjugated anti-mouse IgG Ab (CST, #7076) as secondary antibodies to confirm the protein expression levels of αSMA and GAPDH.

[2] = tested on: normal human lung fibroblast (NHLF); test: TGFβ1-induced fibrosis of normal human lung fibroblasts, αSMA western blot; assay type: cell-based
Method: (1) normal human lung fibroblasts (NHLF) cultured for 9 passages were seeded (1.0×10^5 cells/well) in a 6-well plate and incubated in FBM-2 (Fibroblast Growth Medium-2, CC-3131, Lonza) medium for 24 hours in an incubator at 37° C. 5% CO2. (2) After replacing with serum-free medium, the medium was incubated for 24 hours.
(3) In this regard, under conditions in which fibrosis was induced by treatment with TGFβ1 (10 ng/ml), each well of the plate was treated with the composition of the present disclosure with rhHAPLN1 protein content of 0, 3.1, 12.5, 25 and 100 ng/ml and 100 μg/mL and 200 μg/mL of pirfenidone (Selleckchem), respectively, and incubated for 24 hours.
(4) Afterwards, each sample was washed twice with phosphate buffered saline (PBS, pH 7.2), and then the expression level of αSMA, a marker for myofibroblasts, was confirmed by western blot.

[3] = tested on: ischemia/reperfusion-induced kidney fibrosis; test: Ischemia/reperfusion kidney fibrosis mouse model; assay type: in vivo
Method: According to the experimental scheme of FIG. 14A, 8-week-old C57BL/6 male mice were subjected to pentobarbital (50 mg/kg BW, i.p.) anesthesia, a flank incision was made to induce ischemia, the kidneys were exposed, and blood flow was blocked for 25 minutes by clamping the bilateral renal pedicles using a non-traumatic microaneurysm clamp (Roboz Surgical Instruments). The clamps were then removed and the incisions were sutured. The sham-operation was performed in the same manner as the ischemia/reperfusion experiment, except for the blockage of blood flow.
One day after ischemia, blood urea nitrogen (BUN) was measured, and only mice whose value rose above about 98 mg/dL (specified as 100 mg/dl from now on) were grouped into experimental groups and the experiment was conducted. The experimental groups were administered various drugs, including the composition of the present disclosure, daily from day 7 after surgery, and the kidneys were harvested on day 14 for histologic and biochemical analysis.
In addition, blood was taken on day 7 after drug administration to measure BUN concentration, and 14 days later, blood and urine were taken to measure creatinine concentration in blood and urine and BUN concentration in blood. Additionally, creatinine clearance was calculated.
Biochemical analysis (evaluation of fibrosis index expression): To confirm the expression of αSMA in kidney tissue, western blot was performed using antibodies against αSMA.
To confirm the expression of αSMA in sham-operation (Sham) and ischemia/reperfusion (IR) mouse kidney tissue, samples from each experimental group were loaded onto a single gel, western blot was performed, and the density of each band was measured. Ponceau and GADPH were utilized as equal loading markers (FIG. 14B). Where SV; sham-vehicle, SB; sham-rhHAPLN1-dissolving solution, IRV; IR-vehicle, IRP; IR-pirfenidone, IRA; IR-composition of the present disclosure (rhHAPLN1) A, IRB; IR-composition of the present disclosure (rhHAPLN1) B, IRC; IR-composition of the present disclosure (rhHAPLN1) C, respectively, and more details are shown in Table 1 and Table 2 above. More specifically, the Sham-vehicle is a group in which only the rhHAPLNB1-free buffer solution was diluted in PBS and IP-injected into the Sham control group. Sham-rhHAPLN1-dissolving solution is a group in which rhHAPLN1 concentration B (0.02 mg/kg) was diluted and IP injected to confirm the effect of rhHAPLN1 under normal conditions. […] IR-pirfenidone is a group in which 300 mg/kg of pirfenidone was administered orally after induction of I/R fibrosis.
In addition, the fold change in expression level for IRV in relation to αSMA expression was graphed (FIG. 14C).
As part of the histological analysis of fibrosis, paraffin-fixed kidneys were cut into 3 μm sections, and Sirus red and PAS staining were performed on these slide sections to assess collagen expression and fibrotic lesions in the tissue, respectively (FIG. 14D). Where SV; sham-vehicle, SB; sham-rhHAPLN1-dissolving solution, IRV; IR-vehicle, IRP; IR-pirfenidone, IRA; IR-composition of the present disclosure (rhHAPLN1) concentration 0.1 mg/kg, IRB; IR- the composition of the present disclosure (rhHAPLN1) at a concentration of 0.02 mg/kg, IRC; IR-the composition of the present disclosure (rhHAPLN1) at a concentration of 0.004 mg/kg, respectively.
In addition, in order to quantify the expression of collagen in the above-mentioned tissue, two of the outer medulla areas of the kidney were randomly imaged in the tissue staining photograph of FIG. 14D, and collagen-positive area was marked. Here, the red color is a sirus red positive signal (FIG. 14E).
As an experiment to analyze kidney function, blood was taken through a glass capillary tube with heparin added through the retroorbital vein plexus, and urine was obtained using a metabolic cage. Blood urea nitrogen and creatinine (plasma creatinine, PCr) concentrations were measured using Vitros250 (Johnson & Johnson). […]

[4] = IRP: pirfenidone 300 mg/kg B.W oral
[5] = all rhHAPLN1 contents, pirfenidone 100 and 200 μg/mL
[6] = IRA: rhHAPLN1 0.1 mg/kg B.W intraperitoneal
[7] = IRB: rhHAPLN1 0.02 mg/kg B.W intraperitoneal

With Cc1ccc(=O)n(-c2ccccc2)c1 [pirfenidone, reference compound] the inhibition at 100 µg/mL ([1]; Homo sapiens, CCD-18Co, pirfenidone 100 μg/mL) was 10.6%, the “relative level of αSMA (value used in the inhibition formula; TGFβ1 alone 3.82, untreated 1)” value ([1]; pirfenidone 100 μg/mL) was 3.52 and the “expression level of αSMA at 200 μg/mL versus 100 μg/mL” value ([1]; pirfenidone 200 μg/mL) was “higher expression level of αSMA than 100 μg/mL”. The “anti-fibrotic effect (expression level of αSMA compared to composition without rhHAPLN1)” value ([2]; pirfenidone 100 and 200 μg/mL) was “no anti-fibrotic effect”, the “collagen positive area compared to IRV, quantified with i-Solution (FIG. 14F)” value (“collagen positive area compared to IRV” below) [3, 4] was “weaker” and the “expression of collagen compared to IRV, blinded test of stained photographs (FIG. 14D)” value (“expression of collagen compared to IRV” below) [3, 4] was “weaker”.

B1: rhHAPLN1: recombinant human HAPLN1 protein of SEQ ID NO: 1 produced in CHO-K1 cells, stabilized in acetic acid buffer, sucrose, PS80, pH 5.0 (protein, listed as Homo sapiens)
chain: MKSLLLLVLISICWADHLSDNYTLDHDRAIHIQAENGPHLLVEAEQAKVFSHRGGNVTLPCKFYRDPTAFGSGIHKIRIKWTKLTSDYLKEVDVFVSMGYHKKTYGGYQGRVFLKGGSDSDASLVITDLTLEDYGRYKCEVIEGLEDDTVVVALDLQGVVFPYFPRLGRYNLNFHEAQQACLDQDAVIASFDQLYDAWRGGLDWCNAGWLSDGSVQYPITKPREPCGGQNTVPGVRNYGFWDKDKSRYDVFCFTSNFNGRFYYLIHPTKLTYDEAVQACLNDGAQIAKVGQIFAAWKILGYDRCDAGWLADGSVRYPISRPRRRCSPTEAAVRFVGFPDKKHKLYGVYCFRAYN
For B1, the “expression level of αSMA compared to composition that does not include rhHAPLN1 protein (FIG. 3C)” value ([1]; TGFβ1 10 ng/ml 24 h, then rhHAPLN1 3, 10, 30, 100 ng/ml 24 h) was “significantly lower”, the “anti-fibrotic action from αSMA western blot band, compared to pirfenidone (FIG. 3B)” value [1, 5] was “much better anti-fibrotic action compared to pirfenidone” and the “anti-fibrotic efficacy of rhHAPLN1 relative to pirfenidone at 100 μg/mL” value ([1]; rhHAPLN1 10 ng/ml) was “approximately 7 folds”. The “anti-fibrotic efficacy relative to pirfenidone at 200 μg/mL” value ([1]; rhHAPLN1 10 ng/ml) was “much higher than twice”, the “inhibition of TGFβ1-induced αSMA” value ([1]; rhHAPLN1 10 ng/ml) was 71.6% and the “relative level of αSMA (value used in the inhibition formula; TGFβ1 alone 3.82, untreated 1)” value ([1]; rhHAPLN1 10 ng/ml) was 1.8. For the same molecule, the “rhHAPLN1 protein content showing the most excellent anti-fibrotic efficacy” value ([1]; αSMA) was 10 ng/mL, the “expression level of αSMA compared to composition that does not include rhHAPLN1 protein (FIG. 5B)” value ([2]; TGFβ1 10 ng/ml, rhHAPLN1 3.1, 12.5, 25, 100 ng/ml, 24 hours) was “significantly lower” and the “anti-fibrotic action from αSMA western blot band, compared to pirfenidone (FIG. 5A)” value [2, 5] was “much better anti-fibrotic action compared to pirfenidone”. For the same molecule, the “anti-fibrotic efficacy relative to pirfenidone at 100 μg/mL and at 200 μg/mL” value ([2]; rhHAPLN1 12.5 ng/ml) was “about twice as higher”, the “rhHAPLN1 protein content showing the most excellent anti-fibrotic efficacy” value ([2]; αSMA) was 12.5 ng/mL and the “collagen positive area compared to IRV” value [3, 6] was “weaker”. For the same molecule, the “expression of collagen compared to IRV” value [3, 6] was “weaker”, the “expression of αSMA in kidney compared to IRV (FIG. 14C)” value [3, 6] was “lowered to pirfenidone-like levels” and the “collagen positive area compared to IRV” value [3, 7] was “weaker”. For the same molecule, the “expression of collagen compared to IRV” value [3, 7] was “weaker”, the “expression of αSMA in kidney compared to IRV (FIG. 14C)” value [3, 7] was “lowered to pirfenidone-like levels” and the “expression of αSMA in kidney compared to IRV (FIG. 14C)” value ([3]; IRC: rhHAPLN1 0.004 mg/kg B.W intraperitoneal) was “as high as the IRV”.
